# Experimental data as given in US11447809B2, “Evolution of tRNA synthetases” (President and Fellows of Harvard College, priority 2017, dated 2022).
# Where a chain is given by its changes, count along the chain named. Like-named read-outs stand apart in the source and are kept apart here.
# B1: chPylRS: chimera of residues 1-149 of MbPylRS and residues 185-454 of MmPylRS; progenitor enzyme (SEQ ID NO: 5) (protein)
# chain: MDKKPLDVLISATGLWMSRTGTLHKIKHYEVSRSKIYIEMACGDHLVVNNSRSCRTARAFRHHKYRKTCKRCRVSDEDINNFLTRSTEGKTSVKVKVVSAPKVKKAMPKSVSRAPKPLENPVSAKASTDTSRSVPSPAKSTPNSPVPTSASAPALTKSQTDRLEVLLNPKDEISLNSGKPFRELESELLSRRKKDLQQIYAEERENYLGKLEREITRFFVDRGFLEIKSPILIPLEYIERMGIDNDTELSKQIFRVDKNFCLRPMLAPNLYNYLRKLDRALPDPIKIFEIGPCYRKESDGKEHLEEFTMLNFCQMGSGCTRENLESIITDFLNHLGIDFKIVGDSCMVYGDTLDVMHGDLELSSAVVGPIPLDREWGIDKPWIGAGFGLERLLKVKHDFKNIKRAARSESYYNGISTNL
# B2: p-NFRS: previously evolved MjTyrRS variant charging p-nitro-L-phenylalanine; SEQ ID NO: 18, 22 (protein)
# chain: MDEFEMIKRNTSEIISEEELREVLKKDEKSALIGFEPSGKIHLGHYLQIKKMIDLQNAGFDIIILLADLHAYLNQKGELDEIRKIGDYNKKVFEAMGLKAKYVYGSSFQLDKDYTLNVYRLALKTTLKRARRSMELIAREDENPKVAEVIYPIMQVNPLNYEGVDVAVGGMEQRKIHMLARELLPKKVVCIHNPVLTGLDGEGKMSSSKGNFIAVDDSPEEIRAKIKKAYCPAGVVEGNPIMEIAKYFLEYPLTIKRPEKFGGDLTVNSYEELESLFKNKELHPMRLKNAVAEELIKILEPIRKRL
# B3: p-IFRS: previously reported MjTyrRS variant evolved to charge p-IF; His160; SEQ ID NO: 19, 23 (protein)
# chain: B2 chain with N160H
# Columns and labels:
# tRNA^Pyl = experiment: Aminoacylation assay of chPylRS variants (32P-labeled tRNA, nuclease P1/TLC); assay type: biochemical
# Description: (§1) The genes of chPylRS variants and MjTyrRS variants were cloned into pET15a and transformed into BL21(DE3) (New England Biolabs) cells for expression. Cells were grown in 500 mL of LB media supplemented with 100 m/mL ampicillin at 37° C. to an A600 of 0.6-0.8, and protein expression was induced by addition of 0.5 mM IPTG (chPylRS variants) or 1 mM IPTG (MjTyrRS variants). Cells were incubated at 30° C. for an additional 6 h (chPylRS variants) or 4 h (MjTyrRS variants) and harvested by centrifugation at 5,000 g for 10 min at 4° C. The cell pellet was resuspended in 15 mL of lysis buffer (50 mM Tris (pH 7.5), 300 mM NaCl, 20 mM imidazole), and cells were lysed by sonication. The crude extract was centrifuged at 20,000 g for 30 min at 4° C. The soluble fraction was loaded onto a column containing 2 mL of Ni-NTA resin (Qiagen) previously equilibrated with 20 mL of lysis buffer. The column was washed with 20 mL of lysis buffer. The bound protein was then eluted with 2 mL of 50 mM Tris (pH 7.5), 300 mM NaCl, 300 mM imidazole. The purified protein was dialyzed with 50 mM HEPES-KOH (pH 7.5), 50 mM KCl, 1 mM DTT and 50% glycerol and stored at −80° C. for further studies.
# (§2) Template plasmid containing the tRNA^Pyl or tRNACUA^Tyr/Opt gene was purified with the plasmid maxi kit (Qiagen). The plasmid containing tRNA^Pyl (100 μg) was digested with BstNI (New England Biolabs). The tRNACUA^Tyr/Opt gene was amplified by PCR. The BstNI digested template DNA or PCR product was purified by phenol chloroform extraction, followed by ethanol precipitation and dissolved in double distilled water. A His-tagged T7 RNA polymerase was purified over a column of Ni-NTA resin according to manufacturer's instructions (Qiagen). The transcription reaction (40 mM Tris (pH 8); 4 mM each of UTP, CTP, GTP, and ATP at pH 7.0; 22 mM MgCl2; 2 mM spermidine; 10 mM DTT; 6 μg pyrophosphatase (Roche Applied Science); 60 m/mL of DNA template, approximately 0.2 mg/mL T7 RNA polymerase) was performed in 10 mL reactions overnight at 37° C. The tRNA was purified on 12% denaturing polyacrylamide gel containing 8 M urea and TBE buffer (90 mM Tris, 90 mM boric acid, 2 mM EDTA). UV shadowing was used to illuminate the pure tRNA band, which was excised and extracted three times with 1M sodium acetate pH 5.3 at 4° C. The tRNA extractions were then ethanol precipitated, dissolved in RNase-free distilled water, pooled, and finally desalted using a Biospin 30 column (BioRad). The tRNA was refolded by heating to 100° C. for 5 min and slow cooling to room temperature. At 65° C., MgCl2 was added to a final concentration of 10 mM to aid folding. A His-tagged CCA adding enzyme was purified over column of Ni-NTA resin according to manufacturer's instructions (Qiagen). 16 μM refolded tRNA in 50 mM Tris (pH 8.0), 20 mM MgCl2, 5 mM DTT, and 50 μM NaPPi was incubated at room temperature for 1 h with approximately 0.2 mg/mL CCA-adding enzyme and 1.6 μCi/μL of (α-^32P)-labeled ATP (PerkinElmer). The sample was phenol/chloroform extracted and then passed over a Bio-spin 30 column (Bio-Rad) to remove excess ATP.
# (§3) A 20 μL aminoacylation reaction contained the following components for chPylRS variants: 50 mM HEPES-KOH (pH 7.2), 25 mM KCl, 10 mM MgCl2, 5 mM DTT, 10 mM ATP, 25 μg/mL pyrophosphatase (Roche Applied Science), 10 mM amino acids, 500 nM PylRS variants, 5 μM unlabeled tRNA^Pyl, and 100 nM ^32P-labeled tRNA^Pyl. A 20 μL aminoacylation reaction contained the following components for MjTyrRS variants: 50 mM Tris-HCl (pH 7.5), 1 mM DTT, 10 mM MgCl2, 10 mM ATP, 20 μM unlabeled tRNACUA^Tyr/Opt, 3 μM ^32P-labeled tRNACUA^Tyr/Opt, 2 μM MjTyrRS variants. […]
# [1] = tested on: sfGFP(Asn39TAG) expressed in BL21 star DE3 cells; experiment: ESI-MS analysis of purified sfGFP(Asn39TAG) for amino acid incorporated; assay type: cell-based, E. coli
# Description: Expression of His-tagged sfGFP was performed using the plasmids, cell strains, and antibiotic concentrations described in the methods for sfGFP assays. Saturated overnight cultures were prepared from single colonies of cotransformed cells, which were diluted 1,000-fold into 300 mL of LB media containing 1 mM ncAA where denoted and were grown while shaking at 230 rpm at 37° C. Once the cultures utilizing a pDB070 plasmid grew to a cell density of A600=0.3, AARS expression was induced by supplementing with anhydrotetracycline (ATc) to a final concentration of 200 ng/mL, and incubation was continued. […] Once cultures grew to a cell density of A600=0.5, sfGFP expression was induced by supplementation with a final concentration of 1 mM isopropyl-β-D-thiogalactosidase (IPTG) for cultures utilizing a pET28b(+) plasmid or a final concentration of 1 mM arabinose for cultures utilizing a pBAD plasmid. Incubation with shaking at 37° C. continued for an additional 16 h after induction of sfGFP expression. Cells were harvested by centrifugation at 5,000 g for 10 min at 4° C., and the resulting pellets were resuspended in B-PER II Bacterial Protein Extraction Reagent (Thermo Fisher Scientific) containing EDTA-free protease inhibitor cocktail (Roche). The soluble fraction of the cell lysates were diluted by an equal volume of equilibration buffer (20 mM Tris (pH 7.4), 10 mM imidazole, 300 mM NaCl) and were separately loaded onto a column containing 2 mL of HisPur Ni-NTA resin (Thermo Fisher Scientific) that had been pre-washed with two bed-volumes of equilibration buffer. […]
# Purified protein samples were diluted to 10 μM in dialysis buffer lacking reducing agent or glycerol prior to analysis on an Agilent 6220 ESI-TOF mass spectrometer equipped with an Agilent 1260 HPLC. […] Data was analyzed using Agilent MassHunter Qualitative Analysis software (B.06.00, Build 6.0.633.0 with Bioconfirm). […]
# tRNACUA^Tyr/Opt = experiment: Aminoacylation assay of MjTyrRS variants (32P-labeled tRNA, nuclease P1/TLC); assay type: biochemical; conditions: for Relative catalytic efficiency: relative to p-NFRS with p-NF
# Description: as §1, §2, §3
molecule,measurement,setting,value
B1,kcat,"tRNA^Pyl; BocK substrate, Table 7",11.88 ± 0.18 s^−1 × 10^−3
same,Km,"tRNA^Pyl; BocK substrate, Table 7, read-out: KM^ATP",2.54 ± 0.16 µM
same,Km,"tRNA^Pyl; BocK substrate, Table 7, read-out: KM^tRNA",0.26 ± 0.07 µM
same,kcat,"tRNA^Pyl; L-pyrrolysine substrate, Table 8",33.24 ± 2.74 s^−1 × 10^−3
same,Km,"tRNA^Pyl; L-pyrrolysine substrate, Table 8, read-out: KM^Pyl",21.03 ± 0.15 µM
same,Km,"tRNA^Pyl; Table 7, read-out: KM^bocK",1030 ± 50 µM
same,Relative catalytic efficiency,tRNA^Pyl; kcat/KM^tRNA relative to chPylRS,1
B2,charging of p-IF,"[1]; LB media, 1 mM p-IF",efficiently charges p-iodo-L-phenylalanine (p-IF)
same,charging of Phe,"[1]; overnight expression in LB media, presence or absence of 1 mM p-NF",efficiently charges Phe
same,kcat,tRNACUA^Tyr/Opt; amino acid Phe,0.14 ± 0.003 s^−1 × 10^−3
same,Km,"tRNACUA^Tyr/Opt; amino acid Phe, read-out: KM^ncAA",160 ± 30 µM
same,Relative catalytic efficiency,tRNACUA^Tyr/Opt; amino acid Phe,2.3
same,Km,tRNACUA^Tyr/Opt; ncAA p-IF,2230 ± 460 µM
same,kcat,tRNACUA^Tyr/Opt; ncAA p-IF,0.87 ± 0.11 s^−1 × 10^−3
same,Relative catalytic efficiency,tRNACUA^Tyr/Opt; ncAA p-IF,1.03
same,Km,tRNACUA^Tyr/Opt; ncAA p-NF,3680 ± 290 µM
same,kcat,tRNACUA^Tyr/Opt; ncAA p-NF,1.40 ± 0.05 s^−1 × 10^−3
same,Relative catalytic efficiency,tRNACUA^Tyr/Opt; ncAA p-NF,1.00
B3,selectivity of incorporation into sfGFP,[1]; LB media supplemented with both 1 mM p-NF and 1 mM p-IF,selectively incorporates p-IF
